By Kd is commonly meant a measure of binding affinity in units of concentration. A low value points to tighter binding.

Among the data in PMC13438699 (Nature Communications, 2026) are Kd values, retold here.

In the experiment the target is H1 stem (#4900), HA stem construct derived from the A/Brisbane/59/2007 (H1N1) HA (Designed HA stem #4900 from influenza A …, stabilised). Briefly: BLI. As to conditions: both partners purified.

B1: HB31 wild type (WT) Fab (Fab, V domains shown)
VH: EVQLLESGGGLVQPGGSLRLSCTVSGFTSSNYDMSWVRQAPGKGLEWVSGISGTGRDTYYADSVKGRFTISRDNSKNTLSLQMNSLRADDTAVYFCARDRPVLRYFDWQPYGLDVWGKGTTVTVSS
VL: QSALTQPPSASGSPGQSVTISCTGTSSDVGGYNYVSWYQQYPSKAPKLMIYEVSKRPSGVPDRFSGSKSGNTASLTVSGLQAEDEADYYCNSYAGSNLYVFGTGTKVTVL
notes: also called HB31 WT Fab; HB31 Fab; source: Expi293F, transiently co-transfected, purified (CaptureSelect CH1-XL)
In the case of B1, binding was put at a Kd of 4.3 nM.

B2: HB31 wild type (WT) IgG (antibody, V domains shown)
VH: B1 VH
VL: B1 VL
notes: copies: 2 + 2
B2: the dissociation constant Kd was determined as 2.7 nM.
